B1: AnkR 1529-1600 (protein)
chain: RQSRNLKPERRHGDREYSLSPSQVNGYSSLQDELLSPASLQYALPSPLCADQYWNEVTVIDAIPLAATEHDT
B2: AnkR 1529-1672 (protein)
chain: RQSRNLKPERRHGDREYSLSPSQVNGYSSLQDELLSPASLQYALPSPLCADQYWNEVTVIDAIPLAATEHDTMLEMSDMQVWSAGLTPSLVTAEDSSLECSKAEDSDAIPEWKLEGAHSEDTQGPELGSQDLVEDDTVDSDATN
B3: AnkR 1529-1825 (protein)
chain: RQSRNLKPERRHGDREYSLSPSQVNGYSSLQDELLSPASLQYALPSPLCADQYWNEVTVIDAIPLAATEHDTMLEMSDMQVWSAGLTPSLVTAEDSSLECSKAEDSDAIPEWKLEGAHSEDTQGPELGSQDLVEDDTVDSDATNGLADLLGQEEGQRSEKKRQEVSGTEQDTETEVSLVSGQQRVHARITDSPSVRQVLDRSQARTLDWDKQGSTAVHPQEATQSSWQEEVTQGPHSFQRRITTIQGPEPGALQEYEQVLVSTREHVQRGPPETGSPKAGKEPSLWAPESAFSQEVQ
B4: AnkR 1601-1672 (protein)
chain: MLEMSDMQVWSAGLTPSLVTAEDSSLECSKAEDSDAIPEWKLEGAHSEDTQGPELGSQDLVEDDTVDSDATN
B5: AnkR 1577-1612 (peptide)
chain: CADQYWNEVTVIDAIPLAATEHDTMLEMSDMQVWSA
B6: AnkR 1589-1624 (peptide)
chain: DAIPLAATEHDTMLEMSDMQVWSAGLTPSLVTAEDS
B7: AnkR 1589-1612 (peptide)
chain: DAIPLAATEHDTMLEMSDMQVWSA

One experiment has as its target AnkG_repeats (24 ANK repeats of rat 190 kDa ankyrin-G, residues 38–855) (rat) (UniProt O70511). As to the kind of experiment: ITC; VP-ITC at 25°C; 50 mM Tris pH 7.5, 100 mM NaCl, 1 mM EDTA, 1 mM DTT; binding partner (AS, Nav1.2 ABD proteins, neurofascin ABD; 200–300 µM) in the syringe, ANK repeats (20–30 µM) in the cell; one-site binding model. In general terms: ITC needs no label: the signal is the heat of the interaction.
As to “E1112A-Nav1.2 (ABD with E1112A) (domain or fragment)”, the fold weaker binding than wild-type Nav1.2 worked out at 30 fold. The molecule “Nfasc_ABD (28-residue fragment of the neurofascin cytoplasmic tail, residues 1187–1214) (domain or fragment)” came in with an equilibrium dissociation constant (Kd) of 0.21 µM. “E1112Q-Nav1.2 (ABD with E1112Q) (domain or fragment)”: the fold weaker binding than wild-type Nav1.2 was determined as 30 fold. “Nav1.2_ABD (ankyrin binding domain of Nav1.2, residues 1035–1129) (domain or fragment)” displayed a Kd of 0.17 µM. “Nav1.2_ABD-C (27-residue motif of loop 2, residues 1103–1129) (domain or fragment)” displayed a fold weaker affinity than the entire ABD of 15 fold.

The target of another experiment is T1, AnkR_repeats (24 ANK repeats of ankyrin-R, residues 42–853) (mouse, UniProt Q02357-6 42-853).
T1 chain: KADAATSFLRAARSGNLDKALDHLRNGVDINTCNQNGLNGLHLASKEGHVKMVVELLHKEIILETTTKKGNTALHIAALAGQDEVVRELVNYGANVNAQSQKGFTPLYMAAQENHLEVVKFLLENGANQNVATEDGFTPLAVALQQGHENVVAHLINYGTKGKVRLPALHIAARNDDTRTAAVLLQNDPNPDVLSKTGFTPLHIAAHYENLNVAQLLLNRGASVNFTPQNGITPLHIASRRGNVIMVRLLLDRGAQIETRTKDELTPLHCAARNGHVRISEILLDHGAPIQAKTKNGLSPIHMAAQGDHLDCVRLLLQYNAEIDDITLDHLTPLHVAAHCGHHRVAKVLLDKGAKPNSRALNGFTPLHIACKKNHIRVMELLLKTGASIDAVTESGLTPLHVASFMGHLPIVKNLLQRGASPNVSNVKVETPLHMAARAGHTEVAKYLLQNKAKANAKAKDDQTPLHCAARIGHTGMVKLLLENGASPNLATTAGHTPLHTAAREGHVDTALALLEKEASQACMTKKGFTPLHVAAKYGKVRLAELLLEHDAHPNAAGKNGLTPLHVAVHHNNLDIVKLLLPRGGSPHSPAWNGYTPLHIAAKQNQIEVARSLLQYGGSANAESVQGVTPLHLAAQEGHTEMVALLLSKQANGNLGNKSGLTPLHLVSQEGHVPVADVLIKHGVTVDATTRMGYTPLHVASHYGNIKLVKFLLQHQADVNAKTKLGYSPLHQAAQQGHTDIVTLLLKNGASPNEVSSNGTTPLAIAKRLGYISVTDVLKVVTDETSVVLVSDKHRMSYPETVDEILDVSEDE
As to the kind of experiment: ITC.
B1 came in with a Kd above 50 µM. On to B2, for which the Kd came to 1.1 µM. B3 displayed an equilibrium dissociation constant (Kd) of 1 µM. The Kd values of the last two molecules are within 1.5-fold of each other. Still for that read-out and setting: next, B4: above 50 µM; B5: 2 µM. Turning to B6, the dissociation constant (Kd) was 2.2 µM. On the same count and under the same terms, the value for B7 was 23 µM.

Broadly, the Kd is a measure of binding affinity in units of concentration. The low end stands for higher affinity, the high end for lower affinity.
